Here are results for one substance from paper PMC7806768.

The target in this experiment is R.CcoLI(D225N) mutant (Campylobacter coli). The experiment can be described thus: SEC; Superdex 200 HR 10/30; samples 2.3 uM; 10 mM MES pH 6.0, 200 mM NaCl, 1 mM TCEP; size estimated against marker proteins (aldolase, conalbumin, chymotrypsinogen A, ribonuclease A).

Broadly, the stoichiometry N is a count of units in the complex or per binding partner. R.CcoLI(D225N) mutant (enzyme): the stoichiometry N is 2.
